From patent US20230039109A1 (Novartis, published 2023)

Molecular target: T1, human CD73 expressed on the cell surface (human, UniProt P21589 27-549)
T1 construct: whole, on cells; also called surface CD73
T1 sequence (looked up): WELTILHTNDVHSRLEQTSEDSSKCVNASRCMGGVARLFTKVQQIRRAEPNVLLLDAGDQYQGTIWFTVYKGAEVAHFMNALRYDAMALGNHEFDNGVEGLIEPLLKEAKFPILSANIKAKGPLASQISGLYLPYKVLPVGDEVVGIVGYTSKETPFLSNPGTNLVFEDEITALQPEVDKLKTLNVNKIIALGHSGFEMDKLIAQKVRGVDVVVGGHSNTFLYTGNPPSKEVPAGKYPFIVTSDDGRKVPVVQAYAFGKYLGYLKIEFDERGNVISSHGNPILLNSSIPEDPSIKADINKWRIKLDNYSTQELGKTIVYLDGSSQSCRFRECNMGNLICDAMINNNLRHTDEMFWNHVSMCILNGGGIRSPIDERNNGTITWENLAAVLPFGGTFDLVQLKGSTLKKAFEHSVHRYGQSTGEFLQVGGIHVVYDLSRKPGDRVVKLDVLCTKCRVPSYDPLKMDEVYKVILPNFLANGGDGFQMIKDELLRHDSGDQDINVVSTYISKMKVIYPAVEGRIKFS
Assay: flow cytometry, biotinylated antibody in human whole blood, CD8+ T cells, streptavidin-APC
Protocol: Whole blood target engagement was assessed by flow cytometry using whole blood from healthy human donors. Briefly, biotinylated antibodies were incubated with whole blood for 30 minutes prior to red blood cell lysis and fixation. Fixed cells were stained for CD3 and CD8 to identify CD8+ T cells, and streptavidin-APC to detect biotin. After staining, the cell were washed and subjected to flow cytometry analysis.

EC50 (read off the curve): ~6 ng/mL
B1: anti-CD73 antibody 356.B (antibody, human IgG4 S228P, kappa, V domains shown)
VH: QVQLQESGPGLVKPSETLSLTCTVSGGSIEGRYWSWIRQPPGKGLEWIGYIYGSGSTKYNPSLKSRVTISVDTSKNQFSLKLSSVTAADTAVYYCARESQESPYNNWFDPWGQGTLVTVSS
VL: DIQMTQSPSSVSASVGDRVTITCRASQGISSWLAWYQQKPGKAPKLLIYAASSLQSGVPSRFSGSGSGTDFTLTISSLQPEDFATYYCQQGNSFPRTFGGGTKVEIKR
notes: IgG4 S228P/L235E format; The last heavy chain residue X is K or absent; Biotinylated in the whole blood flow cytometry assay
